Experiment [1] concerns the target T1, C5aR expressed on purified cynomolgus neutrophils (cynomolgus monkey (Macaca fascicularis)).
T1 construct: Endogenous receptor on neutrophils from whole blood of three animals; also called cynomolgus C5aR expressed endogenously
T1 chain: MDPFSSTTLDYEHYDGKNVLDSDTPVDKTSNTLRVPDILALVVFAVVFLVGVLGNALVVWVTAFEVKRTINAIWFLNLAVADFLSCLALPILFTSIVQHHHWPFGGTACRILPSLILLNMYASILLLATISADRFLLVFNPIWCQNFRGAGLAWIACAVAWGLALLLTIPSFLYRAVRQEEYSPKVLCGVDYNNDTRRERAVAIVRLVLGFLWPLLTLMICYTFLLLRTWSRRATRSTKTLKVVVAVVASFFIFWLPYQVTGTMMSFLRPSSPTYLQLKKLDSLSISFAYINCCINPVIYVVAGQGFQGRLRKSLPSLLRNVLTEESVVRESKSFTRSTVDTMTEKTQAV
Description: FACS on purified cynomolgus neutrophils, IgG titration.
Description: (§1) Neutrophils were purified from EDTA-whole blood samples using a MACSexpress® Neutrophil Isolation Cocktail from Miltenyi Biotec. Briefly, using this kit, cells are isolated using magnetic labeling and negative magnetic separation. […] Measurements were done at the FACS Array device. FACS data were evaluated using FlowJo™, entered into GraphPad® Prism (v4.0) and fitted to the sigmoidal dose-response curve using non-linear regression to calculate the EC50.

For experiment [2], the target named is T2, Cynomolgus FcRn p51 [1-297]_AviHis/p14 biotinylated (cynomolgus monkey, UniProt Q8SPV9 24-298; Q6T672 21-119, biotinylated in vitro with BirA (Avi tag)).
T2 construct: Heterodimer; UniProt Q8SPV9 (p51)
Description: BLI (Octet HTX), biotinylated FcRn on SA sensors, IgG titrated, steady state fit, apparent KD, pH 6.0; * deviation from fit model; pH 6.0. On the technique in general: Biolayer interferometry detects binding as a change in optical thickness at a sensor tip.
Description: (§2) 0.5 nm of biotinylated human, cynomolgus, mouse and rat FcRn were captured on streptavidin (SA) sensors (FortéBIO, Pall Life Sciences). […] All sensorgrams were fitted using Data Analysis Software 10.0 (FortéBIO, Pall Life Sciences) to determine the apparent affinity and the data was fitted with a steady state model.

For experiment [3], the target named is T3, Rat FcRn p51 [1-298]/AviHis/p14 biotinylated (rat, UniProt P13599 23-299; P07151 21-119, biotinylated in vitro with BirA (Avi tag)).
T3 construct: Heterodimer; UniProt P13599 (p51)
T3 sequence 1: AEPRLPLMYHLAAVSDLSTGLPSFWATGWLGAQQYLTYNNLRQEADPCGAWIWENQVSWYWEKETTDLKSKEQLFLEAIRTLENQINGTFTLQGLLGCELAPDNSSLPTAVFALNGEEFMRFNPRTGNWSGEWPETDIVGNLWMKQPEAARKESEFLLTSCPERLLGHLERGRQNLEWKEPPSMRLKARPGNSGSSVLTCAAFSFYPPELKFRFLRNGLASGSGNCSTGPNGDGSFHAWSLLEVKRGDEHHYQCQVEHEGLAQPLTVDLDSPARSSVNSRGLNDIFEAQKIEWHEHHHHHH
T3 sequence 2: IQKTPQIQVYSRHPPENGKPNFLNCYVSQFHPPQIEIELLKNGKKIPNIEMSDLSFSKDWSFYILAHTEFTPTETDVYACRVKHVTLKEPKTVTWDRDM
Description: BLI (Octet HTX), biotinylated FcRn on SA sensors, IgG titrated, steady state fit, apparent KD, pH 7.2.
Description: as §2

The target of experiment [4] is T4, Mouse FcRn p51 [1-297]/AviHis/p14 biotinylated (mouse, UniProt Q61559 22-298; P01887 21-119, biotinylated in vitro with BirA (Avi tag)).
T4 construct: Heterodimer; UniProt Q61559 (p51); also called Murine FcRn
T4 chain 1: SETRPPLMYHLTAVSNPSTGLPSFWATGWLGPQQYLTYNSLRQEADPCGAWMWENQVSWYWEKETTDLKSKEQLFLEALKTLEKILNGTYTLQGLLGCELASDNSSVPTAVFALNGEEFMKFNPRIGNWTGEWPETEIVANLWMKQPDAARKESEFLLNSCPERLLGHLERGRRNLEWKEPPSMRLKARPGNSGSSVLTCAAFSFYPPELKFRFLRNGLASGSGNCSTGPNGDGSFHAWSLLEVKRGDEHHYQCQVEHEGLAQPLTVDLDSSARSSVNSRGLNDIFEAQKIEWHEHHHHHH
T4 chain 2: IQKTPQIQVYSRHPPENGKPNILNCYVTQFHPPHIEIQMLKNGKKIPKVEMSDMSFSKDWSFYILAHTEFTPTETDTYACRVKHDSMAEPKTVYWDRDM
Described as above.
Description: as §2

Experiment [5] deals with T5, full-length human C5L2 expressed on CHO Flp-In cells (human, UniProt Q9P296 1-337).
T5 construct: also called C5a anaphylatoxin chemotactic receptor 2
Description: FACS, CHO Flp-In cells expressing human C5L2, single IgG concentration. (In general: Flow cytometry measures light scatter and fluorescence of single cells or particles in a stream.)

The target in experiment [6] is T6, C5aR expressed on purified human neutrophils (human, UniProt P21730 1-350).
T6 construct: whole, on cells; Used here for all assays on primary human cells (purified neutrophils, granulocytes and monocytes in whole blood, monocyte-derived macrophages); also called human C5aR expressed endogenously; C5aR on human granulocytes, monocytes and macrophages
T6 sequence (looked up): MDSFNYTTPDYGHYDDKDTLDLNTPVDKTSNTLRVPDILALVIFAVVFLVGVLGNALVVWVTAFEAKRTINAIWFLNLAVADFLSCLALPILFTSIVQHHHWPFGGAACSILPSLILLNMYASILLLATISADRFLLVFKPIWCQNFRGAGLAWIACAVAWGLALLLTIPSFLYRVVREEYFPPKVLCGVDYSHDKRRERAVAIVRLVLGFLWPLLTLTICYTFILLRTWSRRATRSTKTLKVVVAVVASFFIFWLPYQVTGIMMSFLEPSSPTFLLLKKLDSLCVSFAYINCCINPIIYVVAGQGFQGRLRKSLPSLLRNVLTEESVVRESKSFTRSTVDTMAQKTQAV
Description: FACS on purified human neutrophils, IgG titration.
Description: as §1

In experiment [7] the target is T7, cynomolgus C5aR_NT-bio peptide (cynomolgus monkey, biotin tag (position not given)).
T7 construct: Chemically synthesized linear peptide (Genscript); also called cynomolgus C5aR N-terminal peptide; cynomolgus C5aR peptide
T7 peptide: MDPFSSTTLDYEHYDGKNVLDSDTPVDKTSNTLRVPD
Description: BLI (Octet HTX), biotinylated peptide on SA sensors, IgG as analyte, 1:1 fit, apparent (bivalent); fast koff.

Experiment [8] concerns the target T8, Human FcγRIIIa (1-193)-(158V)-HIS6 (human, UniProt P08637 17-193).
T8 construct: Extracellular region with C-terminal 6xHis tag; UniProt P08637 printed
Description: BLI (Octet), IgG captured on Protein A sensors, FcγR titrated.
Description: (§3) 2.0 nm of IgGs diluted in Octet assay buffer (PBS, 0.05% (v/v) Tween-20, 0.1% (w/v) BSA) were captured on Protein A sensors (FortéBIO, Pall Life Sciences). Kinetic measurements were performed using 7 concentrations of Fc gamma receptors (2n serial dilution) in assay buffer. […] All sensorgrams were fitted using Data Analysis Software 10.0, (FortéBIO, Pall Life Sciences) to determine kₒₙ and koff rate constants, which were used to calculate KD. The raw data was fitted with a 1:1 binding model, with parameter Rₘₐₓ set to local.

Experiment [9] concerns the target T9, Human FcγRIIIa (1-193)-(158F)-HIS6 (human, UniProt P08637 17-193).
T9 construct: Extracellular region with C-terminal 6xHis tag; UniProt P08637 printed
Described as above.
Description: as §3

Experiment [10] has as its target T10, full length cynomolgus C5aR stably expressed on CHO Flp-In cells (cynomolgus monkey (Macaca fascicularis)).
T10 chain: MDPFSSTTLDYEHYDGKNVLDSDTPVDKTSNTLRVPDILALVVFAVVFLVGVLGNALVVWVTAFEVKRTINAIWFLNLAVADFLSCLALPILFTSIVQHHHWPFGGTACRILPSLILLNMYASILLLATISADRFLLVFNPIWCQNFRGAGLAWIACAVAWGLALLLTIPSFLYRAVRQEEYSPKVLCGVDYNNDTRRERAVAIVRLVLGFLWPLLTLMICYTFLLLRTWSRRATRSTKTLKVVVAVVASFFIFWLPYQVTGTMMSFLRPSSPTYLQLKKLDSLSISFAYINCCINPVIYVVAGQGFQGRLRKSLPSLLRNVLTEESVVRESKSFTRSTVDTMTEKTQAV
Nature of the experiment: KinExA, MAB #1 as analyte, Flp-In CHO cells as titrant, apparent (bivalent) KD, n-curve analysis.
Description: Apparent KD determination on C5aR-expressing cells was performed at RT with a KinExA® 3200 instrument (Sapidyne Instruments). PBS (Gibco), supplemented with BSA (1 mg/mL) and 0.02% (v/v) NaN₃ was used as assay buffer. […] After equilibration, the samples were centrifuged and the supernatants were used for analysis. […] The apparent KD was obtained using KinExA® software and by “n-curve analysis,” which fits all of the given curves to a single KD value simultaneously.

T9 sequence (P08637 other isoform, or with tags, fused parts or gaps): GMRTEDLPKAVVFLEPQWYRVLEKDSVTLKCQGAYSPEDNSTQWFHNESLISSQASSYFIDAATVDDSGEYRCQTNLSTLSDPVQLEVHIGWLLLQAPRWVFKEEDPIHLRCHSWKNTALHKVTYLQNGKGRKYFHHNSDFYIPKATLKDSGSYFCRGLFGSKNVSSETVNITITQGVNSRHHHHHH
T5 sequence (Q9P296 whole entry): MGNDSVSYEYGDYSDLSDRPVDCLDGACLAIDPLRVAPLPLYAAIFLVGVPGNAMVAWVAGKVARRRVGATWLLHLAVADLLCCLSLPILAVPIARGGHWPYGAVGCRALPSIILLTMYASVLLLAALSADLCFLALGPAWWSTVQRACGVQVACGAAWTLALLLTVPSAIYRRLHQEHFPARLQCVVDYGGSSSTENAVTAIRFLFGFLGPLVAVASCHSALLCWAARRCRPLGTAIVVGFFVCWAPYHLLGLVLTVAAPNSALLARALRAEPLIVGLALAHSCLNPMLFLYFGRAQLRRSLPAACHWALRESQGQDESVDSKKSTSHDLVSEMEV
T8 sequence (P08637 other isoform, or with tags, fused parts or gaps): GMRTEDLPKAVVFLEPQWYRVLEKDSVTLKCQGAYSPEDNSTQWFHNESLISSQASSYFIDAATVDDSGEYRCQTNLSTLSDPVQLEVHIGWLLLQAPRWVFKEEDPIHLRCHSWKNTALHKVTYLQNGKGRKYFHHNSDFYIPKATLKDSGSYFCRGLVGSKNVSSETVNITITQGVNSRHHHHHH
T2 sequence (Q8SPV9 other isoform, or with tags, fused parts or gaps limits assumed, chain 1 of 2): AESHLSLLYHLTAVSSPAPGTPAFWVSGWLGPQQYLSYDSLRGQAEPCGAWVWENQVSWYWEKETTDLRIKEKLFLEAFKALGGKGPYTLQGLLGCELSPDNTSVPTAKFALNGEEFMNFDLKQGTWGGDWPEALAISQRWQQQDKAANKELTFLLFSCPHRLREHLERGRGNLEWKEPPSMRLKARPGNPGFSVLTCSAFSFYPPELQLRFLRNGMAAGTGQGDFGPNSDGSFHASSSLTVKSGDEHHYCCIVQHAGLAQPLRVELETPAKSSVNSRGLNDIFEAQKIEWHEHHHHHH
T2 sequence (Q6T672 21-119 limits assumed, chain 2 of 2): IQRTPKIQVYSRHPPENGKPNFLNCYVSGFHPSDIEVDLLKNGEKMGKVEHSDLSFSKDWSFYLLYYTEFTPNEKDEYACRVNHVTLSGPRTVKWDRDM

B1: MAB #2 (antibody, human IgG1, lambda)
heavy: EVQLVESGGGLVKPGGSLRLSCAASGFTFSSYAMHWVRQAPGKGLEWVGRIKSVAQGGTTDYAAHVKGRFTISRDDSKNTLYLQMNSLKTEDTAVYYCARVSHSTFDVWGQGTLVTVSSASTKGPSVFPLAPSSKSTSGGTAALGCLVKDYFPEPVTVSWNSGALTSGVHTFPAVLQSSGLYSLSSVVTVPSSSLGTQTYICNVNHKPSNTKVDKRVEPKSCDKTHTCPPCPAPEAEGAPSVFLFPPKPKDTLMISRTPEVTCVVVDVSHEDPEVKFNWYVDGVEVHNAKTKPREEQYNSTYRVVSVLTVLHQDWLNGKEYKCKVSNKALPSSIEKTISKAKGQPREPQVYTLPPSREEMTKNQVSLTCLVKGFYPSDIAVEWESNGQPENNYKTTPPVLDSDGSFFLYSKLTVDKSRWQQGNVFSCSVMHEALHNHYTQKSLSLSPGK
light: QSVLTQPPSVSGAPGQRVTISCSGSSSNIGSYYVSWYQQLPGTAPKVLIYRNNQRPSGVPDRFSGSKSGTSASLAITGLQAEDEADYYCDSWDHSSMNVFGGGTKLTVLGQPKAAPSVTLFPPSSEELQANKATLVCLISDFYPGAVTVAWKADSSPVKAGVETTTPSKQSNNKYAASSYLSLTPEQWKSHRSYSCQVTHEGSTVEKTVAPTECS
notes: lambda 1 light chain
As to B1, the EC50 in [1] turned out to be 3.8 nM; in [6], 5.4 nM. Moreover, the Kd in experiment [2] worked out at 30 nM; in experiment [3] it was 300 nM; in [4] it was 130 nM; in [7] it was 140 nM. Also, the results for the binding result in [5], in experiment [8] and in [9] were “no binding (tested: 300 nM)”, “no binding” and “no binding”, respectively. Moreover, the koff in experiment [7] is 0.0189 s⁻¹. Moreover, the kon in [7] was determined as 138000 M⁻¹ s⁻¹.

B2: MAB #1 (antibody, human IgG1, lambda)
heavy: EVQLVESGGGLVKPGGSLRLSCAASGFTFSSYAMHWVRQAPGKGLEWVGRIKSKAQGGTTDYAAHVKGRFTISRDDSKNTLYLQMNSLKTEDTAVYYCARVSFSTFDVWGQGTLVTVSSASTKGPSVFPLAPSSKSTSGGTAALGCLVKDYFPEPVTVSWNSGALTSGVHTFPAVLQSSGLYSLSSVVTVPSSSLGTQTYICNVNHKPSNTKVDKRVEPKSCDKTHTCPPCPAPEAEGAPSVFLFPPKPKDTLMISRTPEVTCVVVDVSHEDPEVKFNWYVDGVEVHNAKTKPREEQYNSTYRVVSVLTVLHQDWLNGKEYKCKVSNKALPSSIEKTISKAKGQPREPQVYTLPPSREEMTKNQVSLTCLVKGFYPSDIAVEWESNGQPENNYKTTPPVLDSDGSFFLYSKLTVDKSRWQQGNVFSCSVMHEALHNHYTQKSLSLSPGK
light: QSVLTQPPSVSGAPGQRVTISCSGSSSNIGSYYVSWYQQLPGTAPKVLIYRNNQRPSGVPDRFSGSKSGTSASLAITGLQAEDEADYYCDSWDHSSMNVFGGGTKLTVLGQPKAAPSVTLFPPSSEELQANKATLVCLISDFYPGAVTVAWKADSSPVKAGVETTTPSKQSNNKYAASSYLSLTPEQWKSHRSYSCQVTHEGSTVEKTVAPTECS
notes: lambda 1 light chain, VH3-15 framework
Turning to B2, the EC50 is 4.5 nM in experiment [1] and 6 nM in [6]. In addition, the Kd in [10] was found to be 2.98 nM; in [3], 110 nM; in experiment [4], 39 nM; in [7], 63 nM. For the same molecule, the values for the binding result in [5], in [8] and in experiment [9] were “no binding (tested: 300 nM)”, “no binding” and “no binding”, respectively. For the same molecule, the koff in experiment [7] was 0.0108 s⁻¹. In addition, the kon in [7] turned out to be 171000 M⁻¹ s⁻¹.

One may read the EC50 as the concentration at which the effect is half-maximal. What is called koff is a measure of how fast the partners let go of each other. A word on the kon: it is the rate constant with which the complex forms.

The values are drawn from patent publication US20240400657A1 (MorphoSys, published 2024).
